Experimental data: patent US20150158934A1

Columns and labels:
Test in all cases: SPR
[1] = molecular target: gp140UG37 (subtype A), gp140 envelope glycoprotein from the HIV-1 group M A-clade isolate 92UG037 (HIV-1)
[2] = molecular target: CA018 gp140/420 (A/G) (HIV-1)
[3] = molecular target: gp140CN54 (subtype B'/C), gp140 envelope glycoprotein from the HIV-1 group M CRF07-B/C-clade isolate 97CN54 (HIV-1)
[4] = molecular target: gp120IIIB (subgroup B) (HIV-1) (UniProt P04578)

mAb 2F5 (antibody)
Kd [1]: 58.5 nM
koff [1]: 0.422 s⁻¹
kon [1]: 80900 M⁻¹ s⁻¹

mAb 2G12 (antibody)
Kd [2]: 537 nM
koff [2]: 0.342 s⁻¹
kon [2]: 500000 M⁻¹ s⁻¹
Kd [1]: 393 nM
koff [1]: 0.349 s⁻¹
kon [1]: 695000 M⁻¹ s⁻¹

mAb 17b (antibody)
Kd [2]: 1.07 nM
koff [2]: 0.000637 s⁻¹
kon [2]: 593000 M⁻¹ s⁻¹
Kd [3]: 6.15 nM
koff [3]: 0.000171 s⁻¹
kon [3]: 27700 M⁻¹ s⁻¹
Kd [1]: 2.64 nM
koff [1]: 0.000135 s⁻¹
kon [1]: 51000 M⁻¹ s⁻¹

mAb HJ16 (antibody)
Kd [2]: 1030 nM
koff [2]: 0.0382 s⁻¹
kon [2]: 37200 M⁻¹ s⁻¹
Kd [4]: 3.03 nM
koff [4]: 0.000156 s⁻¹
kon [4]: 51500 M⁻¹ s⁻¹
Kd [1]: 88.5 nM
koff [1]: 0.341 s⁻¹
kon [1]: 424000 M⁻¹ s⁻¹

mAb b12 (antibody)
Kd [2]: 18.8 nM
koff [2]: 0.0271 s⁻¹
kon [2]: 1.43e+06 M⁻¹ s⁻¹
Kd [3]: 167 nM
koff [3]: 0.00228 s⁻¹
kon [3]: 13600 M⁻¹ s⁻¹
Kd [1]: 233 nM
koff [1]: 0.301 s⁻¹
kon [1]: 1.29e+06 M⁻¹ s⁻¹

sCD4 (2-D) (from UniProt P01730 26-208) (receptor)
Kd [4]: 0.942 nM
koff [4]: 6e-05 s⁻¹
kon [4]: 63700 M⁻¹ s⁻¹
Kd [1]: 39.8 nM
koff [1]: 0.000249 s⁻¹
kon [1]: 6250 M⁻¹ s⁻¹
